Changes are numbered by the printed parent chain.

Experimental findings from patent publication EP4624492A1 (Shanghai Hongcheng Biopharmaceutical Co., Ltd., dated 2025) are described below.

The chains are these.
B1: 559E1B10 (antibody, V domains shown)
VH: KVQLQQSGPVLVKPGASVKMSCKASGYTFTDYYVNWMKQNYGKSPEWIGVINPHNGDTRYNQKFKGKATLTVDKSSSTANMELTSLTSGDSAVYYCASWLRRGYYFDSWGQGTTLTVSS
VL: DIVMTQSPATLSVTPGDRVSLSCRASQSISDYLHWYQQKSHESPRLLLKYVSQSISGIPSRFSGSGSGSDFTLTINSVEPEDVGVYYCQNGHSFPLTFGAGTKLELK
notes: Murine hybridoma antibody; also called 559E1B10 hybridoma antibody
B2: 563E10E12 (antibody, V domains shown)
VH: EVQLIESGGGLVQPKGSLKLSCAASGFNFNAYAMNWVRQAPGKGLEWVARIRSKSNNFATYYADSVTDRFTISRDDSESMLYLQMNNLKTEDTAMYYCVRHGRRDLLYSMDFWGQGTSVTVSS
VL: DVVMTQAAFSNPVTLGTSTSISCRSSKSLLHSNGITYLFWYLQKPGQSPQLLIYQMSNLASGVPDRFSGSGSGTDFTLRISRVEAEDVGVYYCAQSLELPLTFGGGTKLEIK
notes: Murine hybridoma antibody; also called 563E10E12 hybridoma antibody
B3: 569D11B5 (antibody, V domains shown)
VH: B2 VH with N57D, T67K, D68G, S79N, Y82F
VL: B2 VL with V2I, T19A
notes: Murine hybridoma antibody; also called 569D11B5 hybridoma antibody
B4: 589D7C7 (antibody, V domains shown)
VH: B2 VH with I5V, T67K, L81V, Q84E
VL: B2 VL with V2I, T19A, G89A
notes: Murine hybridoma antibody; also called 589D7C7 hybridoma antibody
B5: 27B9-1G3 (antibody, V domains shown)
VH: EIQLQQSGPELEKPGASVKISCKASGYSFTGYNMNWVKKSNGKSLEWIGNIDPYYGGTNYNQKFKGKATLTVDKSSSTAYMQLKSLTSEDSAVYYCARETWFITTGVIKKGFYFDYWGQGTTLTVSS
VL: EIVLTQSPTTMAASPGEKITLACSASSIISSNYLHWYQQKPGFSPKLLIYRTSSLASGVPARFSGSGSGTSYSLTIGTMEAEDVATYYCQQGSSIPRTFGGGTKLEIK
notes: Murine hybridoma antibody (supernatant or Protein A purified); also called 27B9-1G3 hybridoma antibody
B6: 563E10E12_hzH1L0_VLPLL (antibody, human IgG1, kappa)
heavy: EVQLVESGGGLVQPGGSLKLSCAASGFNFNAYAMNWVRQASGKGLEWVGRIRSKSNNFATYYADSVTDRFTISRDDSKNTAYLQMNSLKTEDTAVYYCVRHGRRDLLYSMDFWGQGTTVTVSSASTKGPSVFPLAPSSKSTSGGTAALGCLVKDYFPEPVTVSWNSGALTSGVHTFPAVLQSSGLYSLSSVVTVPSSSLGTQTYICNVNHKPSNTKVDKKVEPKSCDKTHTCPPCPAPELVGGPSVFLLPPKPKDTLMISRTPEVTCVVVDVSHEDPEVKFNWYVDGVEVHNAKTKPPEEQYNSTLRVVSVLTVLHQDWLNGKEYKCKVSNKALPAPIEKTISKAKGQPREPQVYTLPPSRDELTKNQVSLTCLVKGFYPSDIAVEWESNGQPENNYKTTPLVLDSDGSFFLYSKLTVDKSRWQQGNVFSCSVMHEALHNHYTQKSLSLSPGK
light: DIVMTQSPLSLPVTPGEPASISCRSSKSLLHSNGITYLFWYLQKPGQSPQLLIYQMSNLASGVPDRFSGSGSGTDFTLKISRVEAEDVGVYYCAQSLELPLTFGGGTKVEIKRTVAAPSVFIFPPSDEQLKSGTASVVCLLNNFYPREAKVQWKVDNALQSGNSQESVTEQDSKDSTYSLSSTLTLSKADYEKHKVYACEVTHQGLSSPVTKSFNRGEC
B7: 559E1B10_hIgG1 (antibody)
heavy: not shown
light: DIVMTQSPATLSVTPGDRVSLSCRASQSISDYLHWYQQKSHESPRLLLKYVSQSISGIPSRFSGSGSGSDFTLTINSVEPEDVGVYYCQNGHSFPLTFGAGTKLELKRTVAAPSVFIFPPSDEQLKSGTASVVCLLNNFYPREAKVQWKVDNALQSGNSQESVTEQDSKDSTYSLSSTLTLSKADYEKHKVYACEVTHQGLSSPVTKSFNRGEC
notes: also called hIgG1-subclass chimeric antibody 559E1B10
B8: 559E1B10_hzH2L1_hIgG1 (antibody)
heavy: not shown
light: EIVLTQSPATLSLSPGERATLSCRASQSISDYLHWYQQKPGQAPRLLLKYVSQSISGIPARFSGSGSGTDFTLTISSLEPEDFAVYYCQNGHSFPLTFGGGTKVEIKRTVAAPSVFIFPPSDEQLKSGTASVVCLLNNFYPREAKVQWKVDNALQSGNSQESVTEQDSKDSTYSLSSTLTLSKADYEKHKVYACEVTHQGLSSPVTKSFNRGEC
notes: Humanized, hIgG1/K
B9: 559E1B10_hzH3L0_hIgG1 (antibody, V domains shown)
VH: KVQLVQSGAEVKKPGASVKVSCKASGYTFTDYYVNWVRQAPGQGLEWIGVINPHNGDTRYNQKFKGKATLTVDKSTSTAYMELSSLRSEDTAVYYCASWLRRGYYFDSWGQGTTVTVSS
VL: EIVLTQSPATLSLSPGERATLSCRASQSISDYLHWYQQKPGQAPRLLIYYVSQSISGIPARFSGSGSGTDFTLTISSLEPEDFAVYYCQNGHSFPLTFGGGTKVEIKR
notes: Humanized, hIgG1/K
B10: 559E1B10_hzH0L1_hIgG1 (antibody)
heavy: not shown
light: B8 light
notes: Humanized, hIgG1/K
B11: 559E1B10_hzH2L2_hIgG1 (antibody)
heavy: not shown
light: B8 light with E1D, L4M
notes: Humanized, hIgG1/K
B12: 559E1B10_hzH3L2_hIgG1 (antibody)
heavy: not shown
light: B8 light with E1D, L4M
notes: Humanized, hIgG1/K
B13: 559E1B10_hzH1L2_hIgG1 (antibody)
heavy: not shown
light: B8 light with E1D, L4M
notes: Humanized, hIgG1/K
B14: 559E1B10_hzH0L2_hIgG1 (antibody)
heavy: not shown
light: B8 light with E1D, L4M
notes: Humanized, hIgG1/K
B15: 559E1B10_hzH3L1_hIgG1 (antibody)
heavy: not shown
light: B8 light
notes: Humanized, hIgG1/K
B16: 569D11B5_hIgG1 (antibody)
heavy: not shown
light: B6 light with S7A, P8A, L9F, L11N, P15L, E17T, P18S, K79R, V109L
notes: also called hIgG1-subclass chimeric antibody 569D11B5
B17: 589D7C7_hIgG1 (antibody)
heavy: not shown
light: B6 light with S7A, P8A, L9F, L11N, P15L, E17T, P18S, K79R, G89A, V109L
notes: also called hIgG1-subclass chimeric antibody 589D7C7

In one test the target is T1, human CCR8 (human, UniProt P51685 1-355).
T1 construct: whole, on cells; the cell line is named under assay; also called hCCR8
The experiment in a line: flow cytometry, hybridoma supernatant on CHOK1-hCCR8 cells.
Take B1: the MFI stood at 7350 MFI.

For B2, the MFI was 6370 MFI.

Take B3: the MFI is 5800 MFI.

In the case of B4, the MFI is 6120 MFI.

B5 had an MFI of 2660 MFI.

Another test has as its target T1, human CCR8. The experiment in a line: flow cytometry, competition with 10 nM AF647-human CCL1 on 293F-hCCR8 cells.
With B1, the IC50 came out at 0.0785 µg/mL.

B2 gave an IC50 of 0.132 µg/mL.

Consider B3, for which the IC50 was 0.0882 µg/mL.

B4 returned an IC50 of 0.075 µg/mL.

Consider B5, for which the IC50 was determined as 0.127 µg/mL.

A further test addresses T1, human CCR8. The experiment in a line: cell-based or functional assay.
Regarding B6, the “EC50 of activation of Jurkat-human FcγRIIIa(158V)-NFAT with 293F-hCCR8 target cells” value (from here on “EC50 … with 293F-hCCR8 target cells”) was 0.0017 µg/mL.

Another test addresses T1, human CCR8. The experiment in a line: cell-based or functional assay. The source holds these as a separate data set.
Consider B7, for which the “EC50 … with 293F-hCCR8 target cells” value was 0.0401 µg/mL.

In the case of B8, the “EC50 … with 293F-hCCR8 target cells” value was found to be 0.0292 µg/mL.

With B9, the “EC50 … with 293F-hCCR8 target cells” value was determined as 0.0985 µg/mL.

As for B10, the “EC50 … with 293F-hCCR8 target cells” value is 0.0305 µg/mL.

For B11, the “EC50 … with 293F-hCCR8 target cells” value was determined as 0.033 µg/mL.

With B12, the “EC50 … with 293F-hCCR8 target cells” value amounted to 0.0344 µg/mL.

Consider B13, for which the “EC50 … with 293F-hCCR8 target cells” value was 0.0325 µg/mL.

As for B14, the “EC50 … with 293F-hCCR8 target cells” value amounted to 0.0286 µg/mL.

Consider B15, for which the “EC50 … with 293F-hCCR8 target cells” value was determined as 0.028 µg/mL.

The target of a further test is T1, human CCR8. The experiment in a line: cell-based or functional assay. The source holds these as a separate data set.
In the case of B7, the “IC50 of blockade of CCL1-induced β-arrestin recruitment” value stood at 10.2 µg/mL.

For B8, the “IC50 of blockade of CCL1-induced β-arrestin recruitment” value worked out at 46.5 µg/mL.

Consider B10, for which the “IC50 of blockade of CCL1-induced β-arrestin recruitment” value turned out to be 118 µg/mL.

Consider B11, for which the “IC50 of blockade of CCL1-induced β-arrestin recruitment” value is 6.69 µg/mL.

In the case of B12, the “IC50 of blockade of CCL1-induced β-arrestin recruitment” value worked out at 71.2 µg/mL.

Consider B13, for which the “IC50 of blockade of CCL1-induced β-arrestin recruitment” value came to 7.33 µg/mL.

With B14, the “IC50 of blockade of CCL1-induced β-arrestin recruitment” value turned out to be 11.2 µg/mL.

As for B15, the “IC50 of blockade of CCL1-induced β-arrestin recruitment” value was 14.8 µg/mL.

The target of another test is T2, cynomolgus CCR8 (cynomolgus monkey).
T2 construct: whole, on cells; the constructs of the cell lines are not tied to it word for word; also called cynoCCR8
The experiment in a line: flow cytometry, hybridoma supernatant on CHOK1-cynoCCR8 cells.
With B1, the MFI is 21900 MFI.

For the molecule B2, the MFI came to 16900 MFI.

Molecule B3 had an MFI of 13200 MFI.

On to B4, for which the MFI turned out to be 15200 MFI.

In turn, B5 had an MFI of 14000 MFI.

In the next test the target is T1, human CCR8. The experiment in a line: flow cytometry, competition with 10 nM AF647-human CCL1 on 293F-hCCR8 cells. This is another data set of the same source.
In turn, B7 gave an IC50 of 0.125 µg/mL.

In the case of B8, the IC50 stood at 0.102 µg/mL.

As for B9, the IC50 was 0.443 µg/mL.

As to B10, the IC50 was found to be 0.0438 µg/mL.

On to B11, for which the IC50 was found to be 0.14 µg/mL.

Take B12: the IC50 is 0.121 µg/mL.

As for B13, the IC50 was 0.0769 µg/mL.

B14 showed an IC50 of 0.0413 µg/mL.

For the molecule B15, the IC50 stood at 0.088 µg/mL.

Another test deals with T1, human CCR8. The experiment in a line: cell-based or functional assay. The source holds these as a separate data set.
With B6, the “EC50 of activation of Jurkat-human FcγRIIIa(158V)-NFAT with HuT78 target cells” value is 0.0117 µg/mL.

The target of the next test is T1, human CCR8. The experiment in a line: flow cytometry on 293F-hCCR8 cells.
In the case of B7, the EC50 stood at 0.0617 µg/mL.

In the case of B16, a half-maximal effect (EC50) was put at 0.113 µg/mL.

As for B17, the EC50 was 0.164 µg/mL.

In a further test the target is T1, human CCR8. The experiment in a line: flow cytometry on 293F-hCCR8 cells. This is another data set of the same source.
B7 showed an EC50 of 0.101 µg/mL.

Molecule B8 displayed an EC50 of 0.141 µg/mL.

In turn, B9 registered an EC50 of 0.13 µg/mL.

B10 showed an EC50 of 0.135 µg/mL.

B11 yielded an EC50 of 0.204 µg/mL.

B12 yielded an EC50 of 0.133 µg/mL.

As to B13, the EC50 stood at 0.15 µg/mL.

The molecule B14 yielded an EC50 of 0.0979 µg/mL.

In turn, B15 displayed an EC50 of 0.176 µg/mL.

For the next test, the target named is T1, human CCR8. The experiment in a line: flow cytometry, competition with 10 nM AF647-human CCL1 on 293F-hCCR8 cells. This is another data set of the same source.
For the molecule B7, the IC50 came out at 0.0549 µg/mL.

Take B16: the IC50 was 0.0748 µg/mL.

In turn, B17 showed an IC50 of 0.0526 µg/mL.

A further test concerns the target T2, cynomolgus CCR8. The experiment in a line: flow cytometry on 293T-cynoCCR8 cells.
The molecule B1 displayed an EC50 of 0.322 µg/mL.

In the case of B2, the EC50 was 0.591 µg/mL.

For B3, a half-maximal response (EC50) required 0.444 µg/mL.

The molecule B4 returned an EC50 of 0.298 µg/mL.

Consider B5, for which the EC50 came out at 0.146 µg/mL.

In the next test the target is T1, human CCR8. The experiment in a line: flow cytometry on 293F-hCCR8 cells. The source holds these as a separate data set.
The molecule B1 yielded an EC50 of 0.107 µg/mL.

For B2, the EC50 turned out to be 0.195 µg/mL.

As for B3, the EC50 came out at 0.159 µg/mL.

With B4, the concentration giving a half-maximal response (EC50) came out at 0.361 µg/mL.

For B5, the EC50 is 0.15 µg/mL.
